# Reference: publication PMC9321280 (Nature Communications, 2022)
# B1: Fc-tagged TMPRSS2^106-492/[change] (ectodomain of human TMPRSS2 with [change]) (Fc fusion)
# chain: WKFMGSKCSNSGIECDSSGTCINPSNWCDGVSHCPGGEDENRCVRLYGPNFILQVYSSQRKSWHPVCQDDWNENYGRAACRDMGYKNNFYSSQGIVDDSGSTSFMKLNTSAGNVDIYKKLYHSDACSSKAVVSLRCIACGVNLNSSRQSQIVGGESALPGAWPWQVSLHVQNVHVCGGSIITPEWIVTAAHCVEKPLNNPWHWTAFAGILRQSFMFYGAGYQVEKVISHPNYDSKTKNNDIALMKLQKPLTFNDLVKPVCLPNPGMMLQPEQLCWISGWGATEEKGKTSEVLNAAKVLLIETQRCNSRYVYDNLITPAMICAGFLQGNVDSCQGDSGGPLVTSKNNIWWLIGDTSWGSGCAKAYRPGVYGNVMVFTDWIYRQMRADG
# Biological target: T1, GFP-fused TcsH CROPs (residues 1832–2618), His-tagged (Paeniclostridium sordellii, UniProt M9ZTT7 1832-2618)
# T1 construct: source: Escherichia coli (pET28a vector), purified as His-tagged protein
# T1 sequence: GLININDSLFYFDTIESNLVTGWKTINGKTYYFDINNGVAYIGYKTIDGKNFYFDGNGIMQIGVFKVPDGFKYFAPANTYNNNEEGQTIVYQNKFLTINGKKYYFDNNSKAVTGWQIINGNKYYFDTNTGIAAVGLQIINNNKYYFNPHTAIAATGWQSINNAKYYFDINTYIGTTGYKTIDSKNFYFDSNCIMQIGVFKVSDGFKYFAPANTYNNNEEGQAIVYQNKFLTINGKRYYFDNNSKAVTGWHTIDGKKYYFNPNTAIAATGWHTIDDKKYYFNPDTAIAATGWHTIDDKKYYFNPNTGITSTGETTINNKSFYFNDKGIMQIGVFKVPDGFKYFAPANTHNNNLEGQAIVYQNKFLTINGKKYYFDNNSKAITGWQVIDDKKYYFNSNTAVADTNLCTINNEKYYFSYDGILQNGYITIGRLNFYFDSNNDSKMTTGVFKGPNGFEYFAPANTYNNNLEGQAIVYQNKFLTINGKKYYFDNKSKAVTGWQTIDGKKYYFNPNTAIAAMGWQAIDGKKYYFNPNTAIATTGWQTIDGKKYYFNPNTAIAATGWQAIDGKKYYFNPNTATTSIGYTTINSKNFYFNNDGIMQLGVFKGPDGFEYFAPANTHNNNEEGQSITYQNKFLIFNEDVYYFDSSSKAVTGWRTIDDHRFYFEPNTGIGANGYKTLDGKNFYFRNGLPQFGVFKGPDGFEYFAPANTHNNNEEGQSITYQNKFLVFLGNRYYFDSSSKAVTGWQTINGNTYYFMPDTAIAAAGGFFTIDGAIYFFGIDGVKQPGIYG
# Test: BLI
# Details: both partners purified
binder,measurement,value
B1,Kd,~5.23 nM
